Measurements taken from patent publication US20170022287A1 (Chugai, published 2017).
Where a chain is given by its changes, count along the chain named.

Columns and labels:
[1] = target: T1, CRD2-4; test: ELISA, coated CD137-Fc protein 2 µg/mL, antibody 10 or 5 µg/mL, absorbance 620 nm; Non (uncoated well) 0.165
T1 construct: also called fragmented human CD137-Fc fusion protein CRD2-4

[2] = target: full-length human CD137-Fc fusion protein (human); test: as above
[3] = target: T2, CRD2-3; test: as above
T2 construct: also called fragmented human CD137-Fc fusion protein CRD2-3

[4] = target: T3, CRD1-3; test: as above
T3 construct: also called fragmented human CD137-Fc fusion protein CRD1-3

[5] = target: T4, CRD3-4; test: as above
T4 construct: also called fragmented human CD137-Fc fusion protein CRD3-4

[6] = target: T1, CRD2-4; test: ELISA, coated CD137-Fc protein 2 µg/mL, antibody 10 or 5 µg/mL; absorbance 620 nm divided by that of the uncoated well
[7] = target: full-length human CD137-Fc fusion protein (human); test: as above
[8] = target: T2, CRD2-3; test: as above
[9] = target: T3, CRD1-3; test: as above
[10] = target: T4, CRD3-4; test: as above
[11] = target: T5, CRD1; test: ELISA, coated CD137-Fc protein 2 µg/mL, antibody 10 or 5 µg/mL, absorbance 620 nm; Non (uncoated well) 0.055
T5 construct: also called fragmented human CD137-Fc fusion protein CRD1
Experimental: (§1) Fragmented human CD137-Fc fusion proteins were diluted to 2 μg/mL in an aqueous sodium carbonate solution adjusted to pH9.6. Fifty μL of a diluted fragmented human CD137-Fc fusion protein was added individually to each well of a Nunc MaxiSorp flat-bottom 96 well plate (Nunc). This was allowed to stand at 4° C. overnight or longer, and then the plate was allowed to stand at room temperature for one hour so that the plate has the same temperature as the room temperature. The solution containing the fragmented human CD137-Fc fusion protein was removed by tilting, and each well was washed three times with 300 μL of Wash buffer (TBS containing 0.1% Tween20, TaKaRa). Next, 150 μL of blocking buffer (TBS containing 2% BSA) was added to each well, and this was allowed to stand for one hour or more. The blocking buffer was removed by tilting, and each well was washed three times with Wash Buffer in a similar manner to an earlier step. Then, 50 μL of an antibody solution prepared in advance by dilution with TBS to 10 μg/mL or 5 μg/mL was added to each well. This was subjected to a speed of 600 rpm or so for one hour at room temperature to bind the antibody to the immobilized antigen. […] 100 μL of a secondary antibody solution produced by 1000-fold dilution with TBS containing 0.1% Tween20 was added to each well. For the secondary antibody, ANTIBODY ALKALINE PHOSPHATASE CONJUGATE HUMAN IMMUNOGLOBULIN ABSORBED Goat Anti-Human Kappa Alkaline Phosphate from BIOSOURCE was used in the case of antibodies carrying a Kappa chain, and Human Lambda Light Chain Antibody; Goat anti-Human Lambda Light Chain Antibody Alkaline Phosphatase Conjugated from BETHYL LABORATORIES INC. was used in the case of antibodies carrying a Lambda chain. […] Color development was performed using the BluePhos Microwell kit from KPL. After the chromogenic reaction was stopped using the AP stop solution from KPL, the absorbance was measured at 620 nm on an absorptiometer.

[12] = target: T6, CRD1-2; test: as above
T6 construct: also called fragmented human CD137-Fc fusion protein CRD1-2
Experimental: as §1

[13] = target: T4, CRD3-4; test: as above
Experimental: as §1

[14] = target: T5, CRD1; test: ELISA, coated CD137-Fc protein 2 µg/mL, antibody 10 or 5 µg/mL, absorbance 620 nm; Non (uncoated well) 0.216
[15] = target: T1, CRD2-4; test: as above
[16] = target: full-length human CD137-Fc fusion protein (human); test: as above
[17] = target: T2, CRD2-3; test: as above
[18] = target: T6, CRD1-2; test: as above
[19] = target: T3, CRD1-3; test: as above
[20] = target: T4, CRD3-4; test: as above
[21] = target: T5, CRD1; test: ELISA, coated CD137-Fc protein 2 µg/mL, antibody 10 or 5 µg/mL; absorbance 620 nm divided by that of the uncoated well
[22] = target: T6, CRD1-2; test: as above
[23] = target: T5, CRD1; test: ELISA, coated CD137-Fc protein 2 µg/mL, antibody 10 or 5 µg/mL, absorbance 620 nm; Non (uncoated well) 0.4435
[24] = target: T1, CRD2-4; test: as above
[25] = target: full-length human CD137-Fc fusion protein (human); test: as above
[26] = target: T2, CRD2-3; test: as above
[27] = target: T6, CRD1-2; test: as above
[28] = target: T3, CRD1-3; test: as above
[29] = target: T4, CRD3-4; test: as above

Chain of full-length human CD137-Fc fusion protein (human) (chain, as listed by the source limits assumed): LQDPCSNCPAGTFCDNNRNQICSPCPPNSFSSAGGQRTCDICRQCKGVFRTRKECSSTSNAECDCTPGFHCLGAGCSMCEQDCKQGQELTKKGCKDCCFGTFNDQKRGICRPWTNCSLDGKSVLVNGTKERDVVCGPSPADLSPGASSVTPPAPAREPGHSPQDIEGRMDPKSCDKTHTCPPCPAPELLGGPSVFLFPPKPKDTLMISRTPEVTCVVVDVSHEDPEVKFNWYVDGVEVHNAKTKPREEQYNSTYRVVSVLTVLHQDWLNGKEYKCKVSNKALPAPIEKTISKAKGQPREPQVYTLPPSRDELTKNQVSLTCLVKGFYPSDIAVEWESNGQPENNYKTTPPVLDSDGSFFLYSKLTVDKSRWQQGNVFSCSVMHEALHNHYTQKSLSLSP
T5 sequence (chain, as listed by the source limits assumed): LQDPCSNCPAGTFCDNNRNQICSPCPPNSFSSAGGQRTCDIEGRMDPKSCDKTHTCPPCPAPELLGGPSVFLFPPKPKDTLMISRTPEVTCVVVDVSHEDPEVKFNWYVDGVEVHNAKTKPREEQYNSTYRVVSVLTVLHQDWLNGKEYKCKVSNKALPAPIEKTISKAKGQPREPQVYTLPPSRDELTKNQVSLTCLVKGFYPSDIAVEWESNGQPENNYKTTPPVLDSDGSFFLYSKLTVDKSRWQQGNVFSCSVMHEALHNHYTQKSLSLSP
T3 sequence (chain, as listed by the source limits assumed): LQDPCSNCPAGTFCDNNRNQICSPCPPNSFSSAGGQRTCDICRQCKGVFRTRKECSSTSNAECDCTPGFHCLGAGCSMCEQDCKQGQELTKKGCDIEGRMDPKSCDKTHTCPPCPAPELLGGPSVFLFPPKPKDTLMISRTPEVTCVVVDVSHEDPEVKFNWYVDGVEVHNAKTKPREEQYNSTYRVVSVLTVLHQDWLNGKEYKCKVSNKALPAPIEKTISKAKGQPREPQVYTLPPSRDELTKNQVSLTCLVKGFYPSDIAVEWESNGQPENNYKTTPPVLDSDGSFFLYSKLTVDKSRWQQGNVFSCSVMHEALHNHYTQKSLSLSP
T2 sequence (chain, as listed by the source limits assumed): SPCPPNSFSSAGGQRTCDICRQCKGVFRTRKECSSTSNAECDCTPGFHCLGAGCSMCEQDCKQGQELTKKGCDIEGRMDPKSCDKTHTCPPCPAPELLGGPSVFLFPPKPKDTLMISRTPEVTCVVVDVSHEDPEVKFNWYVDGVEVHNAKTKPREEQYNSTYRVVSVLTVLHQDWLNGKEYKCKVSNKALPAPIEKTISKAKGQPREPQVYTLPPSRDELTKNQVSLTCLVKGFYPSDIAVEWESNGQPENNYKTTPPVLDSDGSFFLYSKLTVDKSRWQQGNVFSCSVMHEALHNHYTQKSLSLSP
T1 sequence (chain, as listed by the source limits assumed): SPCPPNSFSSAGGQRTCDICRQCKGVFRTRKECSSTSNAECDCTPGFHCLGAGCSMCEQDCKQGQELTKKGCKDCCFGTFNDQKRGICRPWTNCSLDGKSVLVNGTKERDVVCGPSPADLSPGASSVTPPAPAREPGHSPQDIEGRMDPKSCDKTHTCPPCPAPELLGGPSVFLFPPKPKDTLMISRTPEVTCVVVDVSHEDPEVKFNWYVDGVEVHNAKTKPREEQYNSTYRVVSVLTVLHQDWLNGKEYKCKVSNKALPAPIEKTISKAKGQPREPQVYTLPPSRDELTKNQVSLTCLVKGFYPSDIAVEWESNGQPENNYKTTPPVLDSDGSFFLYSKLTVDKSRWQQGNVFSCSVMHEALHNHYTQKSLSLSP
T6 sequence (chain, as listed by the source limits assumed): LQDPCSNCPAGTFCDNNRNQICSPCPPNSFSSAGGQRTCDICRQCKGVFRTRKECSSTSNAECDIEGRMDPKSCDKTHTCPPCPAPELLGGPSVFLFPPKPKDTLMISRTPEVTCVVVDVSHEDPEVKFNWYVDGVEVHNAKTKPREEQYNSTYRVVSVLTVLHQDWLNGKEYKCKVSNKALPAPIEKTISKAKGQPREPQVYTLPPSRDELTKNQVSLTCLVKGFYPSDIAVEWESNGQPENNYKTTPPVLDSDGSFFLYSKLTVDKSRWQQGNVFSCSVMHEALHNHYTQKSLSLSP
T4 sequence (chain, as listed by the source limits assumed): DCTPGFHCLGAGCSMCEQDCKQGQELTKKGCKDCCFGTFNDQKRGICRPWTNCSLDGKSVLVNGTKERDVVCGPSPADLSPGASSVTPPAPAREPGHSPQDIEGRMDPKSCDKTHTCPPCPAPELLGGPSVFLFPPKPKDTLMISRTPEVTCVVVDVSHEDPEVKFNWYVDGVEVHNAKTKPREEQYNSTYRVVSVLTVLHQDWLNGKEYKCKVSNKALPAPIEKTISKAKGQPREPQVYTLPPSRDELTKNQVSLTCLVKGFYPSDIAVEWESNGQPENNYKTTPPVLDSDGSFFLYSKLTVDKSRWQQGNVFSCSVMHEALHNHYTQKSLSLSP

B1: R6 (antibody, V domains shown)
VH: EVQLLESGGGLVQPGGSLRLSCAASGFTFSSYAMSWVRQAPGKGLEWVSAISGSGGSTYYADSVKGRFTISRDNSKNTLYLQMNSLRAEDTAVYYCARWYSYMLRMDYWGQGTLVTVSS
VL: DIQMTQSPSSLSASVGDRVTITCRASQSISSYLNWYQQKPGKAPKLLIYAASSLQSGVPSRFSGSGSGTDFTLTISSLQPEDFATYYCQQFHSFPLTFGGGTKVEIK
notes: Synthetic library clone; Fab on phage in the phage ELISA
Which “ELISA color development level” value [1] does the source give for B1 here?
Its value is 2.34.

And the “ELISA color development level” value [2]?
Its value is 2.16.

And the “ELISA color development level” value [3]?
The value was 2.56.

What about the “ELISA color development level” value [4] of the same binder?
The value was 2.3.

What about the “ELISA color development level” value [5] of the same binder?
Its value is 2.73.

And the “Ratio with respect to Non-Coating” value [6]?
Its value is 14.2.

And the “Ratio with respect to Non-Coating” value [7]?
Its value is 13.1.

And the “Ratio with respect to Non-Coating” value [8]?
The value was 15.5.

What about the “Ratio with respect to Non-Coating” value [9] of the same binder?
Its value is 13.9.

And the “Ratio with respect to Non-Coating” value [10]?
The value was 16.6.

B2: M (antibody, human IgG1, lambda, V domains shown)
VH: EVQLVQSGAEVKKPGESLRISCKGSGYSFSTYWISWVRQMPGKGLEWMGKIYPGDSYTNYSPSFQGQVTISADKSISTAYLQWSSLKASDTAMYYCARGYGIFDYWGQGTLVTVSS
VL: SYELTQPPSVSVSPGQTASITCSGDNIGDQYAHWYQQKPGQSPVLVIYQDKNRPSGIPERFSGSNSGNTATLTISGTQAMDEADYYCATYTGFGSLAVFGGGTKLTVLQ
notes: also called Control M
For B2, which “Ratio with respect to Non-Coating” value [10] is on record?
Its value is 41.1.

What about the “ELISA color development level” value [11] of the same binder?
Its value is 0.093.

What about the “ELISA color development level” value [12] of the same binder?
The value was 0.085.

What about the “ELISA color development level” value [13] of the same binder?
Its value is 2.26.

B3: R5 (antibody, V domains shown)
VH: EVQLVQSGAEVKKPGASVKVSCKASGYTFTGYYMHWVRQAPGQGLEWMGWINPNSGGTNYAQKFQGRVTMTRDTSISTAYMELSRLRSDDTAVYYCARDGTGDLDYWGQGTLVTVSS
VL: QSALTQPRSVSGSPGQSVTISCTGTSSDVGVYDYVSWYQQFPGKAPKLMIYDVNKRPSGVPDRFSGSKSGNTASLTVSGLQAEDEADYYCCSYSGTDIRWLFGGGTKLTVL
notes: Naive library clone; Fab on phage in the phage ELISA
Which results are given for B3?
ELISA color development level [14]: 0.278; ELISA color development level [15]: 0.25; ELISA color development level [16]: 1.88; ELISA color development level [17]: 0.274; ELISA color development level [18]: 1.7; ELISA color development level [19]: 1.36; ELISA color development level [20]: 0.161; Ratio with respect to Non-Coating [21]: 1.3; Ratio with respect to Non-Coating [6]: 1.2; Ratio with respect to Non-Coating [7]: 8.7; Ratio with respect to Non-Coating [8]: 1.3; Ratio with respect to Non-Coating [22]: 7.9; Ratio with respect to Non-Coating [9]: 6.3; Ratio with respect to Non-Coating [10]: 0.7

B4: R7 (antibody, V domains shown)
VH: QVQLLESGGGLVQPGGSLRLSCAASGFTFSSYAMSWVRQAPGKGLEWVSAISGSGGSTYYADSVKGRFTISRDNSKNTLYLQMNSLRAEDTAVYYCARDRAMYHPSFNYWGQGTLVTVSS
VL: B1 VL with H92N, F94Y
notes: as for B1
With B4 as the binder, how does the “ELISA color development level” value [23] read?
Its value is 0.61.

And the “ELISA color development level” value [24]?
Its value is 2.19.

What about the “ELISA color development level” value [25] of the same binder?
The value was 1.92.

And the “ELISA color development level” value [26]?
Its value is 2.52.

What about the “ELISA color development level” value [27] of the same binder?
The value was 0.814.

What about the “ELISA color development level” value [28] of the same binder?
Its value is 2.23.

What about the “ELISA color development level” value [29] of the same binder?
Its value is 2.63.

What about the “Ratio with respect to Non-Coating” value [21] of the same binder?
The value was 1.4.

And the “Ratio with respect to Non-Coating” value [6]?
The value was 4.9.

And the “Ratio with respect to Non-Coating” value [7]?
Its value is 4.3.

And the “Ratio with respect to Non-Coating” value [8]?
The value was 5.7.

And the “Ratio with respect to Non-Coating” value [22]?
Its value is 1.8.

What about the “Ratio with respect to Non-Coating” value [9] of the same binder?
Its value is 5.

What about the “Ratio with respect to Non-Coating” value [10] of the same binder?
The value was 5.9.
